Experimental data taken from US20100183642A1 (CENTRE NATIONAL DE LA RECHERCHE SCIENTIFIQUE, published 2010).
Each block holds one binder with its values, some of them ahead of it. Non-standard residues stand in square brackets, D forms with d. No end group written: not given here. *: point of attachment. Biotin = O=C1N[C@H]2[C@H](CS[C@H]2CCCCC(=O)*)N1; Ahx = NCCCCCC(=O)O

Assays:
[1] = molecular target: membranous CD40 on Burkitt's lymphoma cells (BL41, Raji) (UniProt P25942); experiment: flow cytometry on BL41 cells, 2.5 µM biotinylated L41 developed with streptavidin-FITC; the control panel without streptavidin-FITC (BL41 L41 2.5 -SAvFITC) prints 1.3% for the same quadrant
[2] = molecular target: recombinant CD40 associated with the constant part of the heavy chain of mouse IgG2a (human CD40 muIg fusion protein, ANCELL Corporation) (human; mouse) (UniProt P25942); experiment: SPR (BIAcore 3000): CD40 muIg captured by anti-mouse Ig, ligand injected as analyte
[3] = molecular target: membranous CD40 on Burkitt's lymphoma cells (BL41, Raji) (UniProt P25942); experiment: flow cytometry on BL41 cells, 2.5 µM biotinylated L41 developed with streptavidin-FITC; the control panel without streptavidin-FITC (BL41 L41 2.5 -SAvFITC) prints 4.3% for the same quadrant
[4] = molecular target: T1, recombinant CD40 associated with the constant part of the heavy chain of mouse IgG2a (human CD40 muIg fusion … (human; mouse, UniProt P25942 21-193, limits assumed); experiment: SPR (BIAcore 3000): CD40 muIg captured by anti-mouse Ig, ligand injected as analyte
T1 construct: Bought reagent; Captured on the chip by rabbit antibodies against the constant part of mouse immunoglobulins; not shown: constant part of the heavy chain of mouse IgG2a
T1 sequence (P25942 21-193 limits assumed): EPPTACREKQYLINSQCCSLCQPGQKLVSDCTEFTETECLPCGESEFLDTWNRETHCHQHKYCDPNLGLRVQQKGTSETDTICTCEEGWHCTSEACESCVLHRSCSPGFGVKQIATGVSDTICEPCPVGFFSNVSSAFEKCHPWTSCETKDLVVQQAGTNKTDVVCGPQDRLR

Sequence of membranous CD40 on Burkitt's lymphoma cells (BL41, Raji) (P25942 21-277 limits assumed): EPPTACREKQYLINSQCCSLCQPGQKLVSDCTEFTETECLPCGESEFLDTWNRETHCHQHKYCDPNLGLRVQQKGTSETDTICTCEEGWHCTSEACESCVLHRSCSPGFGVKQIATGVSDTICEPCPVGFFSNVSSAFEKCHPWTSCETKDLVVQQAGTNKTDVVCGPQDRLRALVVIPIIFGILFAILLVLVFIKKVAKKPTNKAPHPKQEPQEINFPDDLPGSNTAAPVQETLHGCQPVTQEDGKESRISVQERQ
Sequence of recombinant CD40 associated with the constant part of the heavy chain of mouse IgG2a (human CD40 muIg fusion protein, ANCELL Corporation) (human; mouse) (P25942 21-193 limits assumed): as the sequence (P25942 21-193 limits assumed) above

% of cells in the upper right quadrant (FL1-H above the line, high FSC-H) [1]: 23.5% | Kd [2]: 28 nM | % of cells in the upper left quadrant (FL1-H above the line, low FSC-H) [3]: 10.2%
B1: L41 ligand (compound A), biotinylated (peptide)
peptide: KGYY[Ahx]
chain: [dA]K[dK](Biotin)K[dA]K
modifications: also: three KGYY-Ahx arms, each Ahx amide-linked to side-chain amines of Lys2, Lys4, Lys6 of the cyclic chain, head-to-tail to a chain's N/C-terminus

Kd [4]: 310 nM
B2: L40 ligand, compound of formula (III-e) (peptide)
peptide: H-K[dP]YY[Ahx]
chain: K[dA]K[dA]K[dA]
modifications: also: chain 2 cyclised head to tail, three chain-1 arms, each Ahx carboxyl amide-linked to one Lys side-chain amine of cyclic chain 2 (C3-symmetric trimer), head-to-tail to a chain's N/C-terminus
notes: Branched synthetic trimer with C3 symmetry: three pentapeptide arms on a cyclic hexapeptide
